These results are taken from patent US20250044282A1.

This test addresses HIV-1 integrase fused to HA tag at the C terminus (INHA) (HIV-1 LAI (BRU)) (UniProt P03367).

Consider “HIV-1 CA (capsid protein) (from UniProt P03348 133-363)”, for which the percentage of colocalization was 70%.
